# Assay results from patent US20250303000A1, “COMPOSITIONS AND METHODS FOR INDUCIBLE ALTERNATIVE SPLICING REGULATION OF GENE EXPRESSION” (THE CHILDREN'S HOSPITAL OF PHILADELPHIA, priority 2022, published 2025).
# B1: miniXS3B: miniX^on cassette with optimized Kozak/ATG and cryptic splicing sites eliminated; SEQ ID NO: 1 (nucleic acid)
# DNA: TTTAAACAAGCTTGGCAATCCGGTACTGTTGGTAAATTTCTCTACAACTTAACCTTACAGAGAGCCACTGGCTTCAGCTTTGCCTTTCTTGGTAACTTTTCTGGTAAGTTCTCTCGTTACCATCTTTTGAAATTTTAAGTGAATTAATACATATCTTGCTTAATCTCTTGTGCAAAAAATGTTTTCCATTTATGACAAAACAAAAATTGTGTGAAATTTCAAATATTGGATTAGGAAATACAAAGTTACTGAAAGTGAGGTACTAATGTTTATAAAATAAAAACTTTTTCTTGCCATTTGCAGATTAACATTTTTGAGTCAATCCAAGTGCCACCATGGAAAAAGTTCATGATTGTGTAGAGTAAGACATAATTTTGTTGAAATTTAACTCTGAATACTTAATGTGGTACTGAATACTTAATGTGGTACTGAGAAGCAGCCTAACTGACCACACAACATTCCACGCCTGGCTAATTTTTGTATTTTTAATAAAAACGGGGTTTCACCATGGTGGCCGGGCTGGTTCTGGTTGTTTATGATCTTTATTTTTTGGTGATCTAGGAACCAAACAACAAAAAATTGTTGTTTCCCGTGGGTCGGATCC
# modifications: SF3B3.miniXS3B (m3B; miniXS3B; XS3B)
# B2: miniXS3B2: miniX^on cassette with optimized Kozak/ATG and cryptic splicing sites eliminated; SEQ ID NO: 2 (nucleic acid)
# DNA: GTTTAAACAAGCTTGGCAATCCGGTACTGTTGGTAAATTTCTCTACAACTTAACCTTACAGAGAGCCACTGGCTTCAGCTTTGCCTTTCTTGGTAACTTTTCTGGTAAGTTCTCTCGTTACCATCTTTTGAAATTTTAAATGAATTAATACATATCTTGCTTAATCTCTTGTGCAAAAAATGTTTTCCATTTATGACAAAACAAAAATTGTGTGAAATTTCAAATATTGGATTAAAAAATACAAAGTTACGGAAAATGAGGTACTAATGTTTATAAAATAAAAACTTTTTCTTGCCATTTGCAGATTAACATTTTTGAGTCAATCCAAGTGCCACCATGGAAAAAGTTCATGATTGTGTAGAGTAAGACATAATTTTGTTGAAATTTAACTCTGAATACTTAATGTGGTACTGAATACTTAATGTGGTACTGAGAAGCAGCCTAACTGACCACACAACATTCCACGCCTGGCTAATTTTTGTATTTTTAATAAAAACGGGGTTTCACCATGGTGGCCGGGCTGGTTCTGGTTGTTTATGATCTTTATTTTTTGGTGATCTAGGAACCAAACAACAAAAAATTGTTGTTTCCCGTGGGTCGGATCC
# modifications: SF3B3.miniXS3B2 (m3B2; miniXS3B2; XS3B2)
# Experiments:
# [1] = system: loxP-STOP cassette; test: In vivo gene editing in liver of Ai14 mice (FACS, histology, genomic DNA PCR, Sanger sequencing); conditions: LMI070 50 mg kg-1, 7 days after LMI070
# Description: FIGS. 1A-1H. Generation of the miniXon cassette and assessment of miniXon control of SaCas9 for in vivo gene editing in liver. a, Cartoon depicting the AAV genome size with the SF3B3-Xon and SF3B3-miniXon cassettes. b, Luciferase induction in HEK293 cells transfected with SF3B3-miniXon-luciferase or SF3B3-Xon-luciferase in response to varying doses of LMI070. All samples are normalized to Renilla luciferase activity and are relative to DMSO treated cells. Data are the mean±s.e.m. of 8 biological replicates (***P<0.001 versus SF3B3.Xon, two-way ANOVA followed by Bonferroni's post hoc test). c, Splicing inclusion assays of the LMI070-induced exon at 100 nM LMI070. Pseudo exon inclusion in the Xon cassette was detected using primers flanking the pseudoexon (left) or by priming within the novel exon sequence (right; 4 technical replicates). d, Experimental design. […]
# The inventors have previously developed switch-on cassettes from LMI070-responsive exons, including from the minimal intronic intervening sequences necessary to recapitulate splicing of pseudoexons in SF3B3 (SF3B3.X^on; X^on). […] AAV8-miniX^on-SaCas9 plus single-guide RNAs targeting the loxP-STOP sequence in Ai14 mice were administered intravenously; after several weeks, LMI070 was administered and gene editing was assessed 7 days later (FIG. 1D). […]
# [2] = system: SaCas9; test: SaCas9 protein levels by western blot in HEK293 cells treated with DMSO or LMI070; assay type: cell-based, human; conditions: for SaCas9 protein level, DMSO treated cells / SaCas9 protein induction after LMI070 treatment: 24 h; for SaCas9 protein levels relative to SF3B3.miniXon cassette / SaCas9 protein induction after LMI070 treatment: LMI070 (100 nM)
# Description: FIG. 3. Comparison of the miniX^on (miX^on), SF3B3.miniXS3B (m3B), and SF3B3.miniXS3B2 (m3B2) systems for HD editing control. (top) Cartoon depicting X^on splicing system for controlling Cas9 protein translation in response to LMI070. (middle, bottom) Bicistronic plasmids containing Xon.SaCas9 or miniXon.SaCas9 expression cassette together with a CMVeGFP expression cassettes were transfected in HEK293 cells and treated with DMSO (middle) or LMI070 (100 nM) (bottom) and Cas9 protein levels were determined by western blot 24 h later. eGFP proteins served as transfection control. Western blot is representative of 4 biological replicates.
# While gene editing approaches provide an enormous opportunity for altering or removing disease alleles, prolonged expression of the editing machinery from viral vectors could be problematic. The editing enzymes are foreign proteins and may induce immune responses, and prolonged gene expression would increase opportunities for off-target editing (Charlesworth et al., 2019; Vakulskas et al., 2018). To test the efficacy of SF3B3.miXS3B and SF3B3.miXS3B2 to control translation of CRISPR effector proteins, SF3B3.miXS3B and SF3B3.miXS3B2-SaCas9-CRISPR expression cassettes were generated and SaCas9 protein levels were quantified in response to DMSO or LMI070 treatment in HEK293 cells (FIG. 3A).
# [3] = system: luciferase; test: Luciferase induction in HEK293 cells transfected with switch cassette-luciferase and treated with LMI070; assay type: cell-based, human; conditions: varying doses of LMI070, 24 h
# Description: FIGS. 1A-1H. Generation of the miniXon cassette and assessment of miniXon control of SaCas9 for in vivo gene editing in liver. a, Cartoon depicting the AAV genome size with the SF3B3-Xon and SF3B3-miniXon cassettes. b, Luciferase induction in HEK293 cells transfected with SF3B3-miniXon-luciferase or SF3B3-Xon-luciferase in response to varying doses of LMI070. All samples are normalized to Renilla luciferase activity and are relative to DMSO treated cells. Data are the mean±s.e.m. of 8 biological replicates (***P<0.001 versus SF3B3.Xon, two-way ANOVA followed by Bonferroni's post hoc test). c, Splicing inclusion assays of the LMI070-induced exon at 100 nM LMI070. Pseudo exon inclusion in the Xon cassette was detected using primers flanking the pseudoexon (left) or by priming within the novel exon sequence (right; 4 technical replicates). d, Experimental design. Mice were injected with AAV8-miniXon-SaCas9 plus AAV8-sgAi14-eGFP (1×10^12 viral genomes, 1:1 ratio) and 2 weeks later dosed with vehicle or LMI070 at 50 mg kg-1 to induce SaCas9 expression and editing of the loxP-STOP cassette (guides: sgA14_1: 5′-[…]-3′, sgAi14_2: 5′-[…]-3′). One week later, mice were euthanized, and livers processed to assess gene editing by genomic DNA PCR, histology and FACS of isolated hepatocytes. e, Representative FACS analysis of hepatocytes obtained from Ai14 mice after LMI070 or vehicle treatment. The gating/sorting strategy (above), and the percentage of tdTomato expressing cells for each condition (below) is shown (4 biological replicates). f, Representative photomicrographs of liver sections obtained from AAV injected Ai14 mice 1-week after LMI070 treatment. tdTomato expression (red) is evident in LMI070 treated mice (5 mice per group; scale bars, 100 μm). g, SaCas9 mediated editing of the loxP-STOP cassette in Ai14 mice as detected by PCR assay of liver genomic DNA (3 of 5 mice with guides plus LMI, 2 of 4 mice with guides plus vehicle, 1 of 2 untreated mice are shown). […] The sequence shown is represented in SEQ ID NO: 29.
# FIG. 2. Comparison of the miniX^on, SF3B3.miniXS3B (miniXS3B), and SF3B3.miniXS3B2 (miniXS3B2) systems for luciferase induction. To increase expression and induction of the miniXon cassette in response to LMI070, the kozak sequence within the LMI070 induced translation initiation exon was optimized, and splice sites located within the upstream and downstream intron eliminated. […]
# To test these switches, the cassettes were cloned upstream of luciferase or cDNA. HEK293 cells were transfected with the candidate cassettes, treated with LMI070, and luciferase activity expression determined 24 h later.
Molecule,"Editing of the loxP-STOP cassette (genomic DNA PCR, 355 bp product, Sanger sequencing) ([1]; Ai14 mice liver)","tdTomato expression in hepatocytes / liver sections ([1]; Ai14 mice, AAV8-miniXon-SaCas9 plus AAV8-sgAi14-eGFP i.v.)","SaCas9 protein level, DMSO treated cells [2]",SaCas9 protein levels relative to SF3B3.miniXon cassette [2],SaCas9 protein induction after LMI070 treatment [2],Luciferase induction relative to X^on and miniX^on [3],Protein levels (luciferase) relative to SF3B3.miniX^on cassette [3]
"CC1(C)CC(Oc2ccc(-c3ccc(-c4cn[nH]c4)cc3O)nn2)CC(C)(C)N1 [LMI070, 5-(1H-Pyrazol-4-yl)-2-(6-((2,2,6,6-tetramethylpiperidin-4-yl)oxy)pyridazin-3-yl) phenol]",observed,evident,,,,,
B1,,,almost undetectable,higher,evident,improved induction relative to X^on and miniX^on,higher protein levels relative to the previous SF3B3.miniX^on cassette
B2,,,almost undetectable,higher,evident,improved induction relative to X^on and miniX^on,higher protein levels relative to the previous SF3B3.miniX^on cassette
